According to patent US20190077860A1 (EISAI R AND D MANAGEMENT, published 2019):

T1: human EphA1 extracellular region-SEAP-His protein (human, UniProt P21709 26-547)
T1 construct: extracellular domain; also called hEphA1-SEAP-His
T1 sequence (looked up): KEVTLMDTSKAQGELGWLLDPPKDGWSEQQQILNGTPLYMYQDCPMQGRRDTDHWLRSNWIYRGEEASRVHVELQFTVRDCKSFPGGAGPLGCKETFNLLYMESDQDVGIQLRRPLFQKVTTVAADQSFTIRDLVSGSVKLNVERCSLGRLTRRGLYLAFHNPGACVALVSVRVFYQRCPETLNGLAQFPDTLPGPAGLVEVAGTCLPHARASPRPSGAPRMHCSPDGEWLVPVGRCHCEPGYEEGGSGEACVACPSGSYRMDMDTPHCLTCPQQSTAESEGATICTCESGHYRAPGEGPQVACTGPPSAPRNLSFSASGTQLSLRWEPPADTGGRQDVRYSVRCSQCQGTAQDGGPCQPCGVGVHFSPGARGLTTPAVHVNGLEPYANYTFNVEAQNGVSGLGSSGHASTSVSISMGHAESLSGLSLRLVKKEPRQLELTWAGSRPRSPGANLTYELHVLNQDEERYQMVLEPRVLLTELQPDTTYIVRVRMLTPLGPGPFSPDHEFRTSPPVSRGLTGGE

T2: human EphB1 extracellular region-SEAP-His protein (human, UniProt P54762 18-540)
T2 construct: extracellular domain; also called hEphB1-SEAP-His
T2 sequence (looked up): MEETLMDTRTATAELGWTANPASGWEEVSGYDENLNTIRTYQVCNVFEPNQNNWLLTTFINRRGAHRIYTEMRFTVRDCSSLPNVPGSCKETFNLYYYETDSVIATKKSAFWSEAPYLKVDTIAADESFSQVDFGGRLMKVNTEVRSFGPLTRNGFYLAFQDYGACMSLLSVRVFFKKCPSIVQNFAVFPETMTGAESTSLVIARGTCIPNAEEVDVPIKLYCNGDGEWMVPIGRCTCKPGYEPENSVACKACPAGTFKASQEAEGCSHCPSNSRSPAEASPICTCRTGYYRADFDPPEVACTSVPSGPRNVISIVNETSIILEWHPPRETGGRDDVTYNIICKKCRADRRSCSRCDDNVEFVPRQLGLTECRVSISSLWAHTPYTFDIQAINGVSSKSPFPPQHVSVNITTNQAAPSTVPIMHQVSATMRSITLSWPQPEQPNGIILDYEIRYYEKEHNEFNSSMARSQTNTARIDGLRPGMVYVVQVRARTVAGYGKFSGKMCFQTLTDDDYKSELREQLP

T3: human EphA3 extracellular region-SEAP-His protein (human, UniProt P29320 21-541)
T3 construct: extracellular domain; also called hEphA3-SEAP-His
T3 sequence (looked up): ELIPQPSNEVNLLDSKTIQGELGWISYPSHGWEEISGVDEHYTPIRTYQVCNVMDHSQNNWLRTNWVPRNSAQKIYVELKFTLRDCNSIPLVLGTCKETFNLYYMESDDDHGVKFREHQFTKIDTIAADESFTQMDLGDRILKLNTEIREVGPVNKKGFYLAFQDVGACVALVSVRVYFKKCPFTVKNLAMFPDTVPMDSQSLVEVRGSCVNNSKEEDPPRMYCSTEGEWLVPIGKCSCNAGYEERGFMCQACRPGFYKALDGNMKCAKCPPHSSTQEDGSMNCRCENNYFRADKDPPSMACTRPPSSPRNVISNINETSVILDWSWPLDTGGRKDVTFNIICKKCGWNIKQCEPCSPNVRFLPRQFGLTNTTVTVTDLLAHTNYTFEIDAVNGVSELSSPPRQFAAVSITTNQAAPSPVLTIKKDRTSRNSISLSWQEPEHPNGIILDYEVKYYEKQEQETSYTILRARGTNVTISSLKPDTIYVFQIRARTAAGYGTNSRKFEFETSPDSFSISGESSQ

T4: human EphA6 extracellular region-SEAP-His protein (human, UniProt Q9UF33 23-550)
T4 construct: extracellular domain; also called hEphA6-SEAP-His
T4 sequence (looked up): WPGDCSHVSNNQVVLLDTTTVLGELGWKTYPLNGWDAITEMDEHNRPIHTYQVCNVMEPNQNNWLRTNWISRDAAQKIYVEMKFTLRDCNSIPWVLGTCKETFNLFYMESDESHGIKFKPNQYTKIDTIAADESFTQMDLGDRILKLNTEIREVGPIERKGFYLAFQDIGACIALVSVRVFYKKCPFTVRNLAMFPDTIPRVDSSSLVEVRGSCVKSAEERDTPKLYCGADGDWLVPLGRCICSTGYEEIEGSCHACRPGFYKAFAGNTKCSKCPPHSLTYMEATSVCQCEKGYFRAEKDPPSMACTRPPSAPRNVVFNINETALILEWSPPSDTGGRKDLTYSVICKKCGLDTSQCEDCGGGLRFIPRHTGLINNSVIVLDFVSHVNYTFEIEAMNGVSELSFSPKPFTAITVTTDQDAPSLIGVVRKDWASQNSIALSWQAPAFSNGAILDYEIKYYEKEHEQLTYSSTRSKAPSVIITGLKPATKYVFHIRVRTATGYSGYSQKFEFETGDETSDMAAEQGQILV


Legend:
Assay in all cases: ELISA
[1] = molecular target: T1, human EphA1 extracellular …
SEAP-His = SEAP-His (UniProt P05187 23-511)
SEAP-His, sequence (P05187 23-511): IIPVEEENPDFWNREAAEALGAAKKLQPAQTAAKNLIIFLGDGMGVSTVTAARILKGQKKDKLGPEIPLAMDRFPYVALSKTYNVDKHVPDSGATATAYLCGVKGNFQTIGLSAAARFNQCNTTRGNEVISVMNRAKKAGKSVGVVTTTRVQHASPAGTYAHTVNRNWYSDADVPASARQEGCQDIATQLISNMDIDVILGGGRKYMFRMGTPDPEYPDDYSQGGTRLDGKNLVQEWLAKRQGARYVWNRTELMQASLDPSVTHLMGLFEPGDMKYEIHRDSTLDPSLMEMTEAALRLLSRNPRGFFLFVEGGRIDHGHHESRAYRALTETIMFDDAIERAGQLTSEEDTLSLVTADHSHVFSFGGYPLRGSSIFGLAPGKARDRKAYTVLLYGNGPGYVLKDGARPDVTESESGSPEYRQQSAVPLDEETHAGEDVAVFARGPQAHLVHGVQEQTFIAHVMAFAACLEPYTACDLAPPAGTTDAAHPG

[2] = molecular target: T2, human EphB1 extracellular …
[3] = molecular target: T3, human EphA3 extracellular …
[4] = molecular target: T5, human EphA4 extracellular region-SEAP-His protein (human, UniProt P54764 20-547)
T5 construct: also called hEphA4-SEAP-His
T5 sequence (P54764 20-547): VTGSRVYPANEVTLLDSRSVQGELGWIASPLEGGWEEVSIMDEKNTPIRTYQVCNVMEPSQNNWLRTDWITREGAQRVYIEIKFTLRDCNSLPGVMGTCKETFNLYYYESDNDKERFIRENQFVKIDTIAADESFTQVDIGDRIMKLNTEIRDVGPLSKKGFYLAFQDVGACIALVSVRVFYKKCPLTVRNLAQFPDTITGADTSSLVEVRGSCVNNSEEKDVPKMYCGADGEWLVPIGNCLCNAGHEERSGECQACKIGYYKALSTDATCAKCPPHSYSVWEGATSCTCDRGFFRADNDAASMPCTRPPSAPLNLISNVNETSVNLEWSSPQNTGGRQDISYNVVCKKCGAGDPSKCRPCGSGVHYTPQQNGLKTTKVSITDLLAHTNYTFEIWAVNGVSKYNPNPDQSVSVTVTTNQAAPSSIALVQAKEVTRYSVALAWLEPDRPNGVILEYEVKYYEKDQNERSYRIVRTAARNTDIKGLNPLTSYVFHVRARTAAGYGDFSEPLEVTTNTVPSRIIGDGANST

[5] = molecular target: T4, human EphA6 extracellular …

A450 as % of hEphA4-SEAP-His [1] [%] | A450 as % of hEphA4-SEAP-His (SEAP-His) [%] | A450 as % of hEphA4-SEAP-His [2] [%] | A450 as % of hEphA4-SEAP-His [3] [%] | A450 as % of hEphA4-SEAP-His [4] [%] | A450 as % of hEphA4-SEAP-His [5] [%] | Binder
5.6 | 5.8 | 5.6 | 5.5 | 100 | 9.7 | humanized antibody No. 142 (antibody, human IgG2, human Ig kappa; also called L1-4/HK2) heavy: QVQLVQSGSELKKPGASVKVSCKASGYTFTDYSMHWVRQAPGQGLKWMGWINTETGEPTYADDFKGRFVFSLDTSVSTAYLQISSLKAEDTAVYYCARIPLYYYGSRYWYFDVWGQGTTVTVSSASTKGPSVFPLAPSSRSTSESTAALGCLVKDYFPEPVTVSWNSGALTSGVHTFPAVLQSSGLYSLSSVVTVPSSNFGTQTYTCNVDHKPSNTKVDKTVERKSCVECPPCPAPPAAAPSVFLFPPKPKDTLMISRTPEVTCVVVDVSHEDPEVQFNWYVDGVEVHNAKTKPREEQFNSTFRVVSVLTVVHQDWLNGKEYKCKVSNKGLPAPIEKTISKTKGQPREPQVYTLPPSREEMTKNQVSLTCLVKGFYPSDIAVEWESNGQPENNYKTTPPMLDSDGSFFLYSKLTVDKSRWQQGNVFSCSVMHEALHNHYTQKSLSLSPG light: DIQMTQSPSSLSASVGDRVTITCRASENIYRNLAWYQQKPGKAPKLLVYAATNLADGVPSRFSGSGSGTDYTLTISSLQPEDFATYYCQHFWGTPWTFGQGTKVEIKRTVAAPSVFIFPPSDEQLKSGTASVVCLLNNFYPREAKVQWKVDNALQSGNSQESVTEQDSKDSTYSLSSTLTLSKADYEKHKVYACEVTHQGLSSPVTKSFNRGEC
6 | 6.3 | 5.9 | 5.6 | 100 | 9.9 | humanized antibody No. 143 (antibody, human IgG2, human Ig kappa; also called L1-4/HK4) heavy: QIQLVQSGSELKKPGASVKVSCKASGYTFTDYSMHWVRQAPGQGLKWMGWINTETGEPTYADDFKGRFVFSLDTSVSTAYLQISSLKAEDTAVYYCARIPLYYYGSRYWYFDVWGQGTTVTVSSASTKGPSVFPLAPSSRSTSESTAALGCLVKDYFPEPVTVSWNSGALTSGVHTFPAVLQSSGLYSLSSVVTVPSSNFGTQTYTCNVDHKPSNTKVDKTVERKSCVECPPCPAPPAAAPSVFLFPPKPKDTLMISRTPEVTCVVVDVSHEDPEVQFNWYVDGVEVHNAKTKPREEQFNSTFRVVSVLTVVHQDWLNGKEYKCKVSNKGLPAPIEKTISKTKGQPREPQVYTLPPSREEMTKNQVSLTCLVKGFYPSDIAVEWESNGQPENNYKTTPPMLDSDGSFFLYSKLTVDKSRWQQGNVFSCSVMHEALHNHYTQKSLSLSPG light: DIQMTQSPSSLSASVGDRVTITCRASENIYRNLAWYQQKPGKAPKLLVYAATNLADGVPSRFSGSGSGTDYTLTISSLQPEDFATYYCQHFWGTPWTFGQGTKVEIKRTVAAPSVFIFPPSDEQLKSGTASVVCLLNNFYPREAKVQWKVDNALQSGNSQESVTEQDSKDSTYSLSSTLTLSKADYEKHKVYACEVTHQGLSSPVTKSFNRGEC
6.7 | 6.4 | 6.5 | 6.6 | 100 | 8.6 | humanized antibody No. 145 (antibody, human IgG2, human Ig kappa; also called L1-5/HK2) heavy: QVQLVQSGSELKKPGASVKVSCKASGYTFTDYSMHWVRQAPGQGLKWMGWINTETGEPTYADDFKGRFVFSLDTSVSTAYLQISSLKAEDTAVYYCARIPLYYYGSRYWYFDVWGQGTTVTVSSASTKGPSVFPLAPSSRSTSESTAALGCLVKDYFPEPVTVSWNSGALTSGVHTFPAVLQSSGLYSLSSVVTVPSSNFGTQTYTCNVDHKPSNTKVDKTVERKSCVECPPCPAPPAAAPSVFLFPPKPKDTLMISRTPEVTCVVVDVSHEDPEVQFNWYVDGVEVHNAKTKPREEQFNSTFRVVSVLTVVHQDWLNGKEYKCKVSNKGLPAPIEKTISKTKGQPREPQVYTLPPSREEMTKNQVSLTCLVKGFYPSDIAVEWESNGQPENNYKTTPPMLDSDGSFFLYSKLTVDKSRWQQGNVFSCSVMHEALHNHYTQKSLSLSPG light: DIQMTQSPSSLSASVGDRVTITCRASENIYRNLAWYQQKPGKAPKLLLYAATNLADGVPSRFSGSGSGTDYTLTISSLQSEDFATYYCQHFWGTPWTFGQGTKVEIKRTVAAPSVFIFPPSDEQLKSGTASVVCLLNNFYPREAKVQWKVDNALQSGNSQESVTEQDSKDSTYSLSSTLTLSKADYEKHKVYACEVTHQGLSSPVTKSFNRGEC
5.6 | 5.7 | 5.7 | 5.7 | 100 | 8.1 | humanized antibody No. 144 (antibody, human IgG2, human Ig kappa; also called L1-6/HK1) heavy: QVQLVQSGSELKKPGASVKVSCKASGYTFTDYSMHWVRQAPGQGLEWMGWINTETGEPTYADDFKGRFVFSLDTSVSTAYLQISSLKAEDTAVYYCARIPLYYYGSRYWYFDVWGQGTTVTVSSASTKGPSVFPLAPSSRSTSESTAALGCLVKDYFPEPVTVSWNSGALTSGVHTFPAVLQSSGLYSLSSVVTVPSSNFGTQTYTCNVDHKPSNTKVDKTVERKSCVECPPCPAPPAAAPSVFLFPPKPKDTLMISRTPEVTCVVVDVSHEDPEVQFNWYVDGVEVHNAKTKPREEQFNSTFRVVSVLTVVHQDWLNGKEYKCKVSNKGLPAPIEKTISKTKGQPREPQVYTLPPSREEMTKNQVSLTCLVKGFYPSDIAVEWESNGQPENNYKTTPPMLDSDGSFFLYSKLTVDKSRWQQGNVFSCSVMHEALHNHYTQKSLSLSPG light: DIQMTQSPSSLSASVGDRVTITCRASENIYRNLAWYQQKPGKAPQLLLYAATNLADGVPSRFSGSGSGTDYTLTISSLQPEDFATYYCQHFWGTPWTFGQGTKVEIKRTVAAPSVFIFPPSDEQLKSGTASVVCLLNNFYPREAKVQWKVDNALQSGNSQESVTEQDSKDSTYSLSSTLTLSKADYEKHKVYACEVTHQGLSSPVTKSFNRGEC
